This series concerns the molecule itself. In words: SEC + native gel or EMSA. A general note: A gel shift assay detects complexes by their altered migration in electrophoresis.

This is an account of results in paper PMC11352979, “The mycobacterium lipid transporter MmpL3 is dimeric in detergent solution, SMALPs and reconstituted nanodiscs†” (RSC Chemical Biology, 2024).

B1: C-terminally truncated Mycobacterium tuberculosis MmpL3 (ΔC Mtb-MmpL3, aa 1–753) (domain or fragment)
chain: MFAWWGRTVYRYRFIVIGVMVALCLGGGVFGLSLGKHVTQSGFYDDGSQSVQASVLGDQVYGRDRSGHIVAIFQAPAGKTVDDPAWSKKVVDELNRFQQDHPDQVLGWAGYLRASQATGMATADKKYTFVSIPLKGDDDDTILNNYKAIAPDLQRLDGGTVKLAGLQPVAEALTGTIATDQRRMEVLALPLVAVVLFFVFGGVIAAGLPVMVGGLCIAGALGIMRFLAIFGPVHYFAQPVVSLIGLGIAIDYGLFIVSRFREEIAEGYDTETAVRRTVITAGRTVTFSAVLIVASAIGLLLFPQGFLKSLTYATIASVMLSAILSITVLPACLGILGKHVDALGVRTLFRVPFLANWKISAAYLNWLADRLQRTKTREEVEAGFWGKLVNRVMKRPVLFAAPIVIIMILLIIPVGKLSLGGISEKYLPPTNSVRQAQEEFDKLFPGYRTNPLTLVIQTSNHQPVTDAQIADIRSKAMAIGGFIEPDNDPANMWQERAYAVGASKDPSVRVLQNGLINPADASKKLTELRAITPPKGITVLVGGTPALELDSIHGLFAKMPLMVVILLTTTIVLMFLAFGSVVLPIKATLMSALTLGSTMGILTWIFVDGHFSKWLNFTPTPLTAPVIGLIIALVFGLSTDYEVFLVSRMVEARERGMSTQEAIRIGTAATGRIITAAALIVAVVAGAFVFSDLVMMKYLAFGLMAALLLDATVVRMFLVPSVMKLLGDDCWWAPRWARRLQTRIGLGEIHLPD
notes: also called Mtb-MmpL3 ΔC; Mtb MmpL3 ΔC
As for B1, the binding result is listed as “binds”.
